# Reference: publication doi:10.1101/2023.03.27.534325, “Distinct role of TGN-resident clathrin adaptors for Rab5 activation in the TGN-endosome trafficking pathway” (bioRxiv, 2023)
# T1: GFP-tagged active Vps21p mutant (Q66L) (S. cerevisiae, UniProt P36017 1-210, Q66L)
# T1 construct: Vps21p (yeast Rab5), Saccharomyces cerevisiae, constitutively active mutant; also called Vps21Q66L; constitutively active Q66L mutant of Vps21p
# T1 sequence (looked up): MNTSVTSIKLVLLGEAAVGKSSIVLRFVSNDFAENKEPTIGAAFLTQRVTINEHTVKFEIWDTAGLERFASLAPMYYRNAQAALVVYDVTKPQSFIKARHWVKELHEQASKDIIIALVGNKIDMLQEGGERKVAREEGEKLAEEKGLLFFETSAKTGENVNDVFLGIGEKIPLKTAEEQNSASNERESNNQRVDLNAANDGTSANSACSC
# T2: GFP-ALFA-Vps21p (S. cerevisiae, UniProt P36017 1-210)
# T2 construct: Vps21p (yeast Rab5), Saccharomyces cerevisiae; The ALFA peptide lies between GFP and Vps21p, by the printed name; also called Rab5; yeast Rab5 (Vps21p); not shown: GFP, N-terminal, kept; ALFA peptide, N-terminal, kept
# T2 sequence (looked up): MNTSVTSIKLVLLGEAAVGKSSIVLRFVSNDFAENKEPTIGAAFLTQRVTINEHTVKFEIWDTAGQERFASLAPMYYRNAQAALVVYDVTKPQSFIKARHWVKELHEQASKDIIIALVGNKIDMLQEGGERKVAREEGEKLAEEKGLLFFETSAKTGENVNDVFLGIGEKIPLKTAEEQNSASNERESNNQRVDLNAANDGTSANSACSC
# Tests used:
# [1] = molecular target: T1, GFP-tagged active Vps21p mutant (Q66L); test: pull-down; extract of yeast cells expressing GFP-tagged Vps21p mutant incubated with GST-GNB-bound Glutathione sepharose-4B; washed; incubated with Nluc-RbNT at 200 nM; bound fractions blotted with anti-6×His or anti-GFP antibody; conditions: both partners purified
# GFP-ALFA-Vps21p = molecular target: T2, GFP-ALFA-Vps21p; test: pull-down; GFP-ALFA-Vps21p from 600 μg cleared lysate of wild-type yeast held on GST-ANB Glutathione sepharose-4B; washed (20 mM Tris-HCl pH 8.0, 500 mM NaCl, 10 mM MgCl2, 0.1% NP-40); 10 pmole 6×His-RbNT-Nluc added, 1 hr in the cold room; eluted with ALFA peptide; Nluc activity read. Also run on ent3Δ ent5Δ, ent3Δ ent5Δ apl4Δ, pik1-1, pik1-1 ent3Δ, pik1-1 ypt31ts and pik1-1 ypt31ts gga1Δ gga2Δ cells.; conditions: both partners purified
binder,measurement,setting,value
"MASLDDPGEVREGFLCPLCLKDLQSFYQLHSHYEEEHSGE (domain or fragment, human, UniProt Q9H1K0 1-40, looked up, Rabenosyn-5, human, N-terminal fragment (1-40 a.a.), RbNT; The legends name it 6×His-Nluc-RbNT and the methods 6×His-RbNT-Nluc; The cloning sites (Nluc at XhoI/EcoRI, RbNT at EcoRI/HindIII of pColdI) fit His-Nluc-RbNT; also called Nluc-RbNT; 6×His-RbNT-Nluc; source: E. coli KRX, purified (Ni-NTA agarose); not shown: His6, N-terminal, kept; Nano luciferase, N-terminal, kept) [6×His-Nano luciferase (Nluc)-Rabenosyn5 N-terminal fragment]",binding result,[1],binds
same,binding result,GFP-ALFA-Vps21p,binds
